Results reported in patent US11098081B2, “Epitope tag and method for detection and/or purification of tagged polypeptides” (ChromoTek GmbH, priority 2015, dated 2021).
Values joined by “and” are separate entries in the source; they are usually repeats but may differ in a detail not shown here. Identical values can stand only once.

T1: full-length β-catenin or domains (N-terminus aa 1-119, armadillo domain, C-terminus) (Homo sapiens, UniProt P35222)
T1 construct: full-length β-catenin or the following domains of β-catenin: N-terminus aa 1-119; made in house; host or cells: E. coli BL21(DE3) CodonPlus-RIL
T1 sequence (P35222 1-119): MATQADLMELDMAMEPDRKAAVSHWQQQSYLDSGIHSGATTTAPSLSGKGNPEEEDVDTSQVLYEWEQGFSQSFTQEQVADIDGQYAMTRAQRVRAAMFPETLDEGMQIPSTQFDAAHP

B1: BC2-Nb: nanobody; variable region of a heavy chain antibody of Camelidae, 122 aa, SEQ ID NO: 6, binds the BC2 epitope tag (protein)
VHH: QVQLVESGGGLVQPGGSLTLSCTASGFTLDHYDIGWFRQAPGKEREGVSCINNSDDDTYYADSVKGRFTIFMDNAKDTVYLQMNSLKPEDTAIYYCAEARGCKRGRYEYDFWGQGTQVTVSS
modifications: BC2-Nb
B2: BC2-NbAF488: BC2-Nb chemically coupled to the organic dye AlexaFluor488 (conjugate)
VHH: B1 VHH
modifications: left off: small tags and cut ends
notes: BC2-Nb chemically coupled to the organic dye AlexaFluor488
B3: BC2-NbATTO647: BC2-Nb coupled to the organic dye ATTO647 (conjugate)
VHH: B1 VHH
modifications: left off: small tags and cut ends
notes: BC2-Nb coupled to the organic dye ATTO647

Assays:
[1] = biological target: GFP with a C-terminal BC2-tag (GFPBC2T) (Aequorea victoria, UniProt P42212, F64L/H231L/S65T)
Description: For surface plasmon resonance spectroscopy (SPR)-based affinity measurements. […] The obtained data sets were evaluated using the 1:1 Langmuir binding model with mass transfer. As a control.
The affinity measurements of the BC2 nanobody and the indicated mutants thereof to GFPBC2T were performed using surface plasmon resonance spectroscopy with a Biacore 3000 instrument (GE-Healthcare). GFPBC2T was covalently coupled on dextran fibers of a CM5 sensorchip (GE Healthcare) to a response level of 500 RU. One flow cells was activated and blocked in the absence of protein to determine background, another was loaded with untagged GFP as a control against unspecific binding. […] Each measurement was done in duplicates. As running dilution buffer 10 mM HEPES pH 7.4, 150 mM NaCl, 0.5% surfactant Tween was used. Measurements were performed at 25° C. For the association of BC2-Nb a How rate of 50 μl/min for 15 s and for the dissociation a flow rate of 50 μl/min for 600 s was applied. The regeneration was induced by injection of 23 μl regeneration solution at a flow rate of 30 μl/min. As regeneration solution 10 mM glycine-HCl pH 2.0 was used. The data was evaluated using the software Bia evaluation 4.1 and the 1:1 Langmuir binding model with mass transfer.

[2] = biological target: T1, full-length β-catenin or domains (N-terminus aa 1-119, armadillo domain, C-terminus); test: Domain mapping of β-catenin binders (microsphere-based sandwich immunoassay); type: binding
Description: Microsphere-immobilized Nbs were incubated with GST-fusion constructs comprising full-length β-catenin or indicated domains. Captured β-catenin constructs were detected with domain-specific antibodies. For direct comparison, fluorescence intensities obtained with domain-specific antibodies were normalized to signals obtained with an anti-GST-antibody.
BC2-Nb was covalently immobilized on microspheres using a modified manufacturer's protocol described in Poetz et al. ((2009) Microsphere-based co-immunoprecipitation in multiplex. Analytical biochemistry 395, 244-248). Immobilized BC2-Nb was incubated with purified proteins representing full-length β-catenin or the following domains of β-catenin: N-terminus aa 1-119, armadillo domain aa 120-683 and C-terminus aa 683-781. Purified Glutathion-S-transferase (GST) was used as a negative control. Concentrations range from 0.25 μg/ml to 2 μg/ml. Bound proteins were detected with domain-specific antibodies including ABC antibody clone 8E7 (Merck Millipore) specific for the N-terminus, anti-β-catenin 9G10 (Merck Millipore) targeting the armadillo domain and anti-β-catenin clone 14 (Becton Dickinson) specifically recognizing the C-terminus. To detect unspecific binding of the BC2-Nb to GST an antibody against GST (6G9, ChromoTek) was used. […] The microspheres were measured in a FlexMap 3D instrument (Luminex). […]

[3] = system: peptides of the β-catenin N-terminus (aa 1-127); test: Epitope mapping (pepscan) with biotinylated BC2-Nb on peptide-coated microspheres; type: binding, human
Description: (SEQ ID NO: 4), […] […] (SEQ ID NO: 65).
As negative controls, microspheres comprising Ovalbumin and the Myc-peptide ([…]) covalently coupled to OVA-microspheres were used.

[4] = system: HeLa cells expressing mCherry-VIMBC2T or GFP-PCNABC2T; test: Immunocytochemistry with fluorescently labeled BC2-Nb; type: cell-based, human; details: mCherry-VIMBC2T (AF488) or GFP-PCNABC2T (ATTO647)
Description: (b) HeLa cells ectopically expressing mCherry-VIMBC2T or eGFP-PCNABC2T were fixed either with methanol or PFA, respectively, followed by staining with the indicated fluorescently labeled BC2-Nbs and DAPI. Scale bar 25 μm.
HeLa cells ectopically expressing untagged mCherry-VIM or eGFP-PCNA were fixed with methanol or PFA, respectively, and stained with the indicated fluorescently labeled BC2-Nbs and DAPI. Scale bar 25 μm.
For immunocytochemistry 5-10×10^3 adherent HeLa cells per well of a μClear 96 well plate (Greiner) were transfected with plasmids coding for C-terminally BC2-tagged vimentin or PCNA After 24 h, cells were washed once with PBS and fixed with 4% w/v paraformaldehyde (PFA) in PBS for 15 mm at RT or with methanol for 15 mm at −20° C. After removal of the fixative and washing twice with PBS, cells were blocked and permeabilized with 3% w/v BSA and 0.1% v/v Triton X-100 in PBS for 1 h at RT Subsequently, labeled BC2 nanobody was added with a final concentration of 10-15 μg/ml and 4′,6-diamidino-2-phenyl indole (DAPI, Sigma Aldrich) with a final concentration of 1 μg/ml for overnight incubation at 4° C. Unbound nanobody and DAPI were removed by washing 3 limes with a mixture of PBS and 6% v/v 5 M NaCl in H2O. Images of FIG. 4 b and FIG. 10 b were acquired with an Image Xpress micro XL system. Confocal images of FIG. 10 a were acquired with an ImageXpress Micro Confocal.

[5] = system: BC2-tagged proteins (eGFP-PCNABC2T, mCherry-VIMBC2T); test: Western blot detection with fluorescently labeled BC2-Nb; type: binding
Description: (b) For Western blot detection using fluorescently labeled B2-Nb (BC2-NbAF488) indicated amounts of the input fractions (as shown in (a)) were subjected to SDS-PAGE and immunoblotting. The Western blots were probed with BC2-N488 followed by detection with anti-PCNA (left panel) or anti-Vimentin (right panel) antibodies. As loading control blots were probed with an anti-GAPDH antibody (lower panel).
Denaturing polyacrylamide gel electrophoresis (SDS-PAGE) was performed according to standard procedures Protein samples were boiled in 2× SDS-sample buffer (60 mM Tris/HCl, pH 6.8; 2% (w/v) SDS; 5% (v/v) 2-mercaploethanol, 10% (v/v) glycerol, 0.02% bromophenole blue). For immunoblotting proteins were transferred on nitrocellulose membranes (Bio-Rad Laboratories).
Purified BC2 nanobody (1 mg) was labeled with the NHS-activated fluorescent dyes Alexa488 (Life technologies) or Atto647 (Atto-Tec) according to manufacturer's guidelines. After coupling, unbound dye was removed by separation on PD-10 Desalting Columns (GE Healthcare). For immunoblot analysis. 5 μg of BC2-NbAF488 was diluted in 4 ml 3% BSA diluted in TBS, 0.05% Tween20 and Western blots were incubated for 1 h at RT.

Molecule	Rmax [RU] ([1]; SPR, GFPBC2T on CM5 chip, 1:1 Langmuir binding model with mass transfer)	Kd ([1]; SPR, GFPBC2T on CM5 chip, 25° C., 1:1 Langmuir binding model with mass transfer)	kon (M^−1s^−1) ([1]; SPR, association rate constant)	koff (s^−1) ([1]; SPR, dissociation rate constant)	fold higher affinity compared to FLAG, HA, c-myc or EPEA systems ([1]; comparison with literature values of prior-art tag systems)	β-catenin domain recognized [2]	binding to epitope peptide with phosphorylated Ser23 [3]	binding to overlapping 15-mer peptides ([3]; 29 peptides covering aa 1-127)	amino acid sequence recognized (minimal epitope) ([3]; N- and C-terminally truncated peptides)	co-localization with BC2-tagged protein in fixed HeLa cells [4]	signal for endogenous β-catenin in Western blot ([5]; in the presence of BC2-tagged proteins)	specificity in Western blot detection ([5]; untagged proteins not detected)
B1	170 ± 0.34 RU	1.4 nM and ~1.4 nM	4.6 ± 0.04 × 10^5 M^−1s^−1	6.4 ± 0.27 × 10^−4 s^−1	10-100 fold	exclusively recognizes the N-terminal domain (aa 1-119)	completely abolishes binding	strong binding to two consecutive peptides comprising the residues 13-31	PDRKAAVSHWQQ			
B2										strong co-localization	no signal for β-catenin was detected	highly specific for BC2-tagged proteins
B3										clear co-localization		
